Laboratory results as given in publication PMC10325834, “Characteristics of Mycobacterium tuberculosis PtpA interaction and activity on the alpha subunit of human mitochondrial trifunctional protein, a key enzyme of lipid metabolism” (Frontiers in Cellular and Infection Microbiology, 2023).

Molecular target: T1, human mitochondrial trifunctional protein (hTFP α/β) immunopurified from macrophages (human (endogenous in macrophages), UniProt P40939-1 37-763; P55084 34-474, phosphotyrosine: 21% of the immunopurified hTFP is phosphorylated on Tyr (sites not identified))
T1 construct: also called immunopurified hTFP; hTFPα from macrophages; source: endogenous, macrophage extract; immunoprecipitated with anti-TFP monoclonal antibody (ab110302) on beads, eluted with 50 mM citrate pH 2.6
Experiment: SPR
Conditions: both partners purified

T1 sequence (P40939 37-763, chain 1 of 2): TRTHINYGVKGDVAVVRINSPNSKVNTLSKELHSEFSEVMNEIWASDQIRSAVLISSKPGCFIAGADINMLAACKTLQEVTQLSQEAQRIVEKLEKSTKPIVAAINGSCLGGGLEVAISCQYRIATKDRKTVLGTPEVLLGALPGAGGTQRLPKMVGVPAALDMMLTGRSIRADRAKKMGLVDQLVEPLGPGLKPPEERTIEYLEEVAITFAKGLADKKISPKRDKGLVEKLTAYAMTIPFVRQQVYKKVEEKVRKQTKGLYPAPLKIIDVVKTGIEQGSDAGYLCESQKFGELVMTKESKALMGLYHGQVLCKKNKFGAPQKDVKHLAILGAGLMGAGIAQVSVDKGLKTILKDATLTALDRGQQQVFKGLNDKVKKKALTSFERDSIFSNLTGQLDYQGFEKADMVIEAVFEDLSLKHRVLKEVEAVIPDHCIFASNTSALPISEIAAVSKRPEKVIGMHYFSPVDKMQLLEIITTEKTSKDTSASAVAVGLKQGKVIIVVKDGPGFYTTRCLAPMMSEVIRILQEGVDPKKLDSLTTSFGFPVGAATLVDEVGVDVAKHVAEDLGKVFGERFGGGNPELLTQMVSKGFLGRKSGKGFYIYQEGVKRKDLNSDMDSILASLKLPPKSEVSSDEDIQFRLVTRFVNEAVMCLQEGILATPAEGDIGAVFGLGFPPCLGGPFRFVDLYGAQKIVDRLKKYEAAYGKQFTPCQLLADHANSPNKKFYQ
T1 sequence (P55084 34-474, chain 2 of 2): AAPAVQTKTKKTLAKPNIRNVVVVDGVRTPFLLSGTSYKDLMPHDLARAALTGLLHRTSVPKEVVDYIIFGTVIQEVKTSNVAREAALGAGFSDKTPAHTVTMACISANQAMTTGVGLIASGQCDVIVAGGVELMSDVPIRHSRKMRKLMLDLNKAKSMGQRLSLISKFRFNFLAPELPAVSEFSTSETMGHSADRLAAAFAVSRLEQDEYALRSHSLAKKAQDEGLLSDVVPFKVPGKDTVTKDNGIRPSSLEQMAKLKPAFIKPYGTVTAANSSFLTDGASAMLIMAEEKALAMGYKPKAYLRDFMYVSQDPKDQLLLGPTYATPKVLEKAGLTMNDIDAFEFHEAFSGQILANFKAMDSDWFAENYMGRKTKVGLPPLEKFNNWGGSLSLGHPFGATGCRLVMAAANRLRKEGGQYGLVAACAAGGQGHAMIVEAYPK

B1: Mycobacterium tuberculosis PtpA, recombinant wild type (enzyme)
chain: MSDPLHVTFVCTGNICRSPMAEKMFAQQLRHRGLGDAVRVTSAGTGNWHVGSCADERAAGVLRAHGYPTDHRAAQVGTEHLAADLLVALDRNHARLLRQLGVEAARVRMLRSFDPRSGTHALDVEDPYYGDHSDFEEVFAVIESALPGLHDWVDERLARNGPS
notes: also called rPtpA; PtpA-wt
Question: B1 was tested. Which Kd did it give?
Answer: Its Kd is 310 nM.
